Results taken from publication PMC8178172 (Structure (London, England : 1993), 2021).

Target: human PACRG full-length short isoform (PACRG^FL, 257 a.a.) (human, UniProt Q96M98-2 1-257)
Test: cross-linking

binding result: binds
B1: human MEIG1 (His6 tag cleaved) (natural protein)
chain: MASSDVKPKSVSHAKKWSEEIENLYRFQQAGYRDETEYRQVKQVSMVDRWPETGYVKKLQRRDNTFYYYNKQRECDDKEVHKVKIYAY
